Reference: US20210054097A1 (Novo Nordisk, published 2021)
Values belong to the binder of their own block, whether it stands above or below them. Ends that are not written are not given here.

Assays:
[1] = biological target: T1, FX activation peptide 12-mer SSSGEAPDSITW (human); assay: peptide ELISA
T1 peptide: SSSGEAPDSITW-biotin
Protocol: (§1) The peptides were C-terminally conjugated to biotin and 50 μL of 1 μg/mL peptide solution was used for immobilization in discrete wells of the microtiter plate which was pre-coated with 1 μg/mL streptavidin. Each well was washed with washing buffer (10 mM Tris, 150 mM NaCl, 2.5 mM CaCl₂, 0.05% Tween 20, pH 8.60) followed by addition of 50 μL of 2 μg/mL FLAG-tagged anti-FX Nanobody® or IgG antibody to be tested. After 1 hour non-bound Nanobody®/antibody was washed off using washing buffer.
(§2) Bound anti-FX activation peptide ligand was detected by first binding a HRP-labelled secondary antibody (for FLAG-tagged Nanobodies: Anti-FLAG mAb M2-Peroxidase (HRP) (Sigma Aldrich, US), for antibody: Fcγ Fragment Specific Peroxidase AffiniPure F(ab′)₂ Fragment Goat Anti-Human IgG (Jackson ImmunoResearch Laboratories, Inc., US), or Peroxidase AffiniPure Goat Anti-Mouse IgG (Jackson ImmunoResearch Laboratories, Inc., US)) for 1 hour, and then adding 100 μL TMB-1 ELISA substrate (Kem-En-Tec Diagnostics, Denmark).

[2] = biological target: T2, FX activation peptide 12-mer QATSSSGEAPDS (human); assay: peptide ELISA
T2 peptide: QATSSSGEAPDS-biotin
Protocol: as §1, §2

[3] = biological target: T3, FX activation peptide 12-mer FDLLDFNQTQPE (human); assay: peptide ELISA
T3 peptide: FDLLDFNQTQPE-biotin
Protocol: as §1, §2

[4] = biological target: T4, FX activation peptide 12-mer LLDFNQTQPERG (human); assay: peptide ELISA
T4 peptide: LLDFNQTQPERG-biotin
Protocol: as §1, §2

[5] = biological target: T5, FX activation peptide 12-mer QTQPERGDNNLT (human); assay: peptide ELISA
T5 peptide: QTQPERGDNNLT-biotin
Protocol: as §1, §2

[6] = biological target: T6, FX activation peptide 12-mer DFNQTQPERGDN (human); assay: peptide ELISA
T6 peptide: DFNQTQPERGDN-biotin
Protocol: as §1, §2

[7] = biological target: T7, FX activation peptide 12-mer ITWKPYDAADLD (human); assay: peptide ELISA
T7 peptide: ITWKPYDAADLD-biotin
Protocol: as §1, §2

[8] = biological target: T8, FX activation peptide 12-mer GEAPDSITWKPY (human); assay: peptide ELISA
T8 peptide: GEAPDSITWKPY-biotin
Protocol: as §1, §2

[9] = biological target: T9, FX activation peptide 12-mer DPTENPFDLLDF (human); assay: peptide ELISA
T9 peptide: DPTENPFDLLDF-biotin
Protocol: as §1, §2

[10] = biological target: T10, FX activation peptide 12-mer PDSITWKPYDAA (human); assay: peptide ELISA
T10 peptide: PDSITWKPYDAA-biotin
Protocol: as §1, §2

[11] = biological target: T11, FX activation peptide 12-mer SITWKPYDAADL (human); assay: peptide ELISA
T11 peptide: SITWKPYDAADL-biotin
Protocol: as §1, §2

[12] = biological target: T12, FX activation peptide 12-mer TENPFDLLDFNQ (human); assay: peptide ELISA
T12 peptide: TENPFDLLDFNQ-biotin
Protocol: as §1, §2

[13] = biological target: T13, FX activation peptide 12-mer TSSSGEAPDSIT (human); assay: peptide ELISA
T13 peptide: TSSSGEAPDSIT-biotin
Protocol: as §1, §2

[14] = biological target: T14, FX activation peptide 12-mer SSGEAPDSITWK (human); assay: peptide ELISA
T14 peptide: SSGEAPDSITWK-biotin
Protocol: as §1, §2

[15] = biological target: T15, FX activation peptide 12-mer APDSITWKPYDA (human); assay: peptide ELISA
T15 peptide: APDSITWKPYDA-biotin
Protocol: as §1, §2

[16] = biological target: T16, FX activation peptide 12-mer AQATSSSGEAPD (human); assay: peptide ELISA
T16 peptide: AQATSSSGEAPD-biotin
Protocol: as §1, §2

[17] = biological target: T17, FX activation peptide 12-mer EAPDSITWKPYD (human); assay: peptide ELISA
T17 peptide: EAPDSITWKPYD-biotin
Protocol: as §1, §2

[18] = biological target: T18, FX activation peptide 12-mer ENPFDLLDFNQT (human); assay: peptide ELISA
T18 peptide: ENPFDLLDFNQT-biotin
Protocol: as §1, §2

[19] = biological target: T19, FX activation peptide 12-mer DLLDFNQTQPER (human); assay: peptide ELISA
T19 peptide: DLLDFNQTQPER-biotin
Protocol: as §1, §2

[20] = biological target: T20, FX activation peptide 12-mer SGEAPDSITWKP (human); assay: peptide ELISA
T20 peptide: SGEAPDSITWKP-biotin
Protocol: as §1, §2

[21] = biological target: T21, FX activation peptide 12-mer YDAADLDPTENP (human); assay: peptide ELISA
T21 peptide: YDAADLDPTENP-biotin
Protocol: as §1, §2

[22] = biological target: T22, FX activation peptide 12-mer PYDAADLDPTEN (human); assay: peptide ELISA
T22 peptide: PYDAADLDPTEN-biotin
Protocol: as §1, §2

[23] = biological target: T23, FX activation peptide 12-mer TQPERGDNNLTR (human); assay: peptide ELISA
T23 peptide: TQPERGDNNLTR-biotin
Protocol: as §1, §2

[24] = biological target: T24, FX activation peptide 12-mer DAADLDPTENPF (human); assay: peptide ELISA
T24 peptide: DAADLDPTENPF-biotin
Protocol: as §1, §2

[25] = biological target: T25, FX activation peptide 12-mer KPYDAADLDPTE (human); assay: peptide ELISA
T25 peptide: KPYDAADLDPTE-biotin
Protocol: as §1, §2

[26] = biological target: T26, FX activation peptide 12-mer ATSSSGEAPDSI (human); assay: peptide ELISA
T26 peptide: ATSSSGEAPDSI-biotin
Protocol: as §1, §2

[27] = biological target: T27, FX activation peptide 12-mer AADLDPTENPFD (human); assay: peptide ELISA
T27 peptide: AADLDPTENPFD-biotin
Protocol: as §1, §2

[28] = biological target: T28, FX activation peptide 12-mer PFDLLDFNQTQP (human); assay: peptide ELISA
T28 peptide: PFDLLDFNQTQP-biotin
Protocol: as §1, §2

[29] = biological target: T29, FX activation peptide 12-mer FNQTQPERGDNN (human); assay: peptide ELISA
T29 peptide: FNQTQPERGDNN-biotin
Protocol: as §1, §2

[30] = biological target: T30, FX activation peptide 12-mer TWKPYDAADLDP (human); assay: peptide ELISA
T30 peptide: TWKPYDAADLDP-biotin
Protocol: as §1, §2

[31] = biological target: T31, FX activation peptide 12-mer WKPYDAADLDPT (human); assay: peptide ELISA
T31 peptide: WKPYDAADLDPT-biotin
Protocol: as §1, §2

[32] = biological target: T32, FX activation peptide 12-mer LDFNQTQPERGD (human); assay: peptide ELISA
T32 peptide: LDFNQTQPERGD-biotin
Protocol: as §1, §2

[33] = biological target: T33, FX activation peptide 12-mer NPFDLLDFNQTQ (human); assay: peptide ELISA
T33 peptide: NPFDLLDFNQTQ-biotin
Protocol: as §1, §2

[34] = biological target: T34, FX activation peptide 12-mer PTENPFDLLDFN (human); assay: peptide ELISA
T34 peptide: PTENPFDLLDFN-biotin
Protocol: as §1, §2

[35] = biological target: T35, FX activation peptide 12-mer DLDPTENPFDLL (human); assay: peptide ELISA
T35 peptide: DLDPTENPFDLL-biotin
Protocol: as §1, §2

[36] = biological target: T36, FX activation peptide 12-mer ADLDPTENPFDL (human); assay: peptide ELISA
T36 peptide: ADLDPTENPFDL-biotin
Protocol: as §1, §2

[37] = biological target: T37, FX activation peptide 12-mer DSITWKPYDAAD (human); assay: peptide ELISA
T37 peptide: DSITWKPYDAAD-biotin
Protocol: as §1, §2

[38] = biological target: T38, FX activation peptide 12-mer LDPTENPFDLLD (human); assay: peptide ELISA
T38 peptide: LDPTENPFDLLD-biotin
Protocol: as §1, §2

[39] = biological target: human activated Factor X (human, UniProt P00742 41-179; P00742 235-488); assay: cell-based or functional assay
human activated Factor X, sequence (P00742 41-179, chain 1 of 2): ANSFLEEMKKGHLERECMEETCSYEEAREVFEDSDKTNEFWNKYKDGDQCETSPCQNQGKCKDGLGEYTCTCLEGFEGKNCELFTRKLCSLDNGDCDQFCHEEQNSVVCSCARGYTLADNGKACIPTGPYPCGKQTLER
human activated Factor X, sequence (P00742 235-488, chain 2 of 2): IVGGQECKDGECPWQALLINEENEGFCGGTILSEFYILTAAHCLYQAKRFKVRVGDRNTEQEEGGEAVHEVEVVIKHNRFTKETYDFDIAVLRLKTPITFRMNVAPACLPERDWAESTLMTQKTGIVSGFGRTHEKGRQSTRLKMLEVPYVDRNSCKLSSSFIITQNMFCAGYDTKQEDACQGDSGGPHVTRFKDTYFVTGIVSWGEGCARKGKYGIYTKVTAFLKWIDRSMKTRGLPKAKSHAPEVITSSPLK

[40] = biological target: T39, human plasma-derived Factor X zymogen (human, UniProt P00742 41-179; P00742 183-488); assay: apparent KD fitted from FXa generation assay
T39 construct: Plasma-derived, bought (Haematologic Technologies); also called FX; human FX
T39 sequence (P00742 41-179, chain 1 of 2): as the sequence (P00742 41-179, chain 1 of 2) above
T39 sequence (P00742 183-488, chain 2 of 2): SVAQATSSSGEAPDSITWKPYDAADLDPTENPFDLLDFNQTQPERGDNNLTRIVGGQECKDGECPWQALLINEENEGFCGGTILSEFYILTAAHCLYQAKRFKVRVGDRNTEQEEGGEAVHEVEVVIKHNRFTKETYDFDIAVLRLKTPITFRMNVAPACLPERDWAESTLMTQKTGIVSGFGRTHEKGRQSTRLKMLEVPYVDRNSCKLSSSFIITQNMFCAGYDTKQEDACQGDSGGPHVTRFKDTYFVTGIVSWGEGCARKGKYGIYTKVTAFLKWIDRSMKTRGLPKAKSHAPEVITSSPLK
Protocol: The ability of the monovalent anti-FX Nanobody® (Nb) to promote FIXa-mediated FX-activation was determined in the presence of a procoagulant phospholipid membrane according to the principles described by Scheiflinger et al. (2008) J Thromb Haemost, 6:315-322. A Fab of mAb 13F62 (IgG1 isotype, variable sequences identified by SEQ ID NO:6 and 7), also found to bind the activation peptide, were included for comparison. Moreover, anti-FX antibodies as disclosed in U.S. Pat. No. 9,334,331 (J327 and L404-k in said publication), corresponding to the anti-FX arm of ACE910); and more recently in WO2018/021450 (J327 D31H and JYL280 in said publication) and WO2018/098363 (BIIB-12-917 represented by SEQ ID NO:427 and 615 in said publication) are stated to be suitable for use as part of anti-FIX/anti-FX bispecific FVIII mimetic compounds were, furthermore, included for comparison.
Each compound was tested individually in a concentration range from 0-1000 nM, 0-2000 nM, 0-4000 nM or 0-8000 nM by pre-incubation with 1-1.5 nM human plasma-derived FIXa (Haematologic Technologies Inc, USA) and 500 μM 25:75 phosphatidyl serine:phosphatidyl choline phospholipid vesicles (Haematologic Technologies Inc, USA) in assay buffer (50 mM HEPES, 100 mM NaCl, 5 mM CaCl₂, 0.1% (w/v) PEG8000, 1 mg/mL bovine serum albumin, pH 7.3) for 10 minutes. The reaction was initiated by addition of human plasma-derived FX (Haematologic Technologies Inc, USA) to a final concentration of 100 nM and a reaction volume of 50 μL. Following 20 minutes activation at room temperature while agitated (1000 RPM), the reaction was quenched by addition of 25 μL quench buffer (50 mM HEPES, 100 mM NaCl, 60 mM EDTA, 0.1% (w/v) PEG8000, 1 mg/mL bovine serum albumin, pH 7.3). The amount of FXa generated was determined by addition of 25 μL 2 mM S-2765 chromogenic substrate for FXa (Chromogenix, Sweden) and chromogenic substrate conversion was followed by measuring absorbance at 405 nm for 10 minutes in a microplate reader. The observed change in 405 nm absorbance (ΔAbs405/min) was fitted to the quadratic binding equation (eq. 1) to obtain the peak stimulatory activity and EC50.

[41] = biological target: T39, human plasma-derived Factor X zymogen; assay: cell-based or functional assay

ELISA signal relative to background [1]: 0.77 | ELISA signal relative to background [2]: 1.82 | ELISA signal relative to background [3]: 30.6 | ELISA signal relative to background [4]: 0.86 | ELISA signal relative to background [6]: 1.23 | ELISA signal relative to background [7]: 4.23 | ELISA signal relative to background [8]: 1.5 | ELISA signal relative to background [9]: 29.8 | ELISA signal relative to background [10]: 1.89 | ELISA signal relative to background [11]: 7.95 | ELISA signal relative to background [12]: 29.7 | ELISA signal relative to background [13]: 0.68 | ELISA signal relative to background [14]: 0.73 | ELISA signal relative to background [15]: 1.59 | ELISA signal relative to background [16]: 1.89 | ELISA signal relative to background [17]: 1.64 | ELISA signal relative to background [18]: 28.7 | ELISA signal relative to background [19]: 0.82 | ELISA signal relative to background [20]: 0.82 | ELISA signal relative to background [21]: 0.84 | ELISA signal relative to background [22]: 0.84 | ELISA signal relative to background [23]: 8.86 | ELISA signal relative to background [24]: 0.77 | ELISA signal relative to background [25]: 0.77 | ELISA signal relative to background [26]: 3.2 | ELISA signal relative to background [27]: 0.77 | ELISA signal relative to background [28]: 29.7 | ELISA signal relative to background [29]: 1.77 | ELISA signal relative to background [30]: 1.95 | ELISA signal relative to background [31]: 1.18 | ELISA signal relative to background [32]: 0.8 | ELISA signal relative to background [33]: 28.6 | ELISA signal relative to background [34]: 30.1 | ELISA signal relative to background [35]: 26.4 | ELISA signal relative to background [36]: 1.25 | ELISA signal relative to background [37]: 3.61 | ELISA signal relative to background [38]: 31 | FXa amidolytic activity (relative to free FXa, fold) [39]: 0.94 fold
B1: mAb 13F62 (antibody, V domains shown)
VH: EVQLVESGGGQVKPGGSLRLSCAASGFTFSTSSIYWVRQAPGKGLEWVSSISSGSSYIFYADSVKGRFTISRDNAKNSLFLQMNSLRAEDTAVYYCVSGYSRLLDYWGQGTLVTVSS
VL: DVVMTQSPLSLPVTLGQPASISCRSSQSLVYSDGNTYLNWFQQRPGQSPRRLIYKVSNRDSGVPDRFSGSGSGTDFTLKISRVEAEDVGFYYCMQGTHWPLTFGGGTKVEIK
notes: IgG1 isotype
ELISA signal relative to background [5]: 1.95

ELISA signal relative to background [1]: 1.99 | ELISA signal relative to background [2]: 1.97 | ELISA signal relative to background [16]: 1.92 | ELISA signal relative to background [23]: 1.97 | ELISA signal relative to background [25]: 1.89 | ELISA signal relative to background [27]: 2.22 | ELISA signal relative to background [31]: 1.83 | ELISA signal relative to background [32]: 2.21 | ELISA signal relative to background [36]: 2.34 | Kd [40]: ~1.7 µM | Increase in FX activation (fold) [41]: > 25 fold | FXa amidolytic activity (relative to free FXa, fold) [39]: 1.07 fold
B2: Nb 721E08 (VHH)
VHH: EVQLVESGGGVVQPGGSLRLSCAASGRTFSTYSMGWFRQAPGKEREFVAAITRRGSRTYYADSVKGRFTISRDNSKNTVYLQMNSLRPEDTALYYCAADRRPADSYLDYWGQGTLVTVSS
notes: monovalent Nanobody; not shown: C-terminal FLAG3 and HIS6 tag
ELISA signal relative to background [5]: 1.96
